Results reported in publication PMC2175199 (The Journal of Cell Biology, 2000).

Columns and labels:
[1] = target: T1, XSA1 (Xenopus laevis (endogenous in egg …, UniProt Q9DGN1 1-1265)); experiment: co-IP
T1 sequence: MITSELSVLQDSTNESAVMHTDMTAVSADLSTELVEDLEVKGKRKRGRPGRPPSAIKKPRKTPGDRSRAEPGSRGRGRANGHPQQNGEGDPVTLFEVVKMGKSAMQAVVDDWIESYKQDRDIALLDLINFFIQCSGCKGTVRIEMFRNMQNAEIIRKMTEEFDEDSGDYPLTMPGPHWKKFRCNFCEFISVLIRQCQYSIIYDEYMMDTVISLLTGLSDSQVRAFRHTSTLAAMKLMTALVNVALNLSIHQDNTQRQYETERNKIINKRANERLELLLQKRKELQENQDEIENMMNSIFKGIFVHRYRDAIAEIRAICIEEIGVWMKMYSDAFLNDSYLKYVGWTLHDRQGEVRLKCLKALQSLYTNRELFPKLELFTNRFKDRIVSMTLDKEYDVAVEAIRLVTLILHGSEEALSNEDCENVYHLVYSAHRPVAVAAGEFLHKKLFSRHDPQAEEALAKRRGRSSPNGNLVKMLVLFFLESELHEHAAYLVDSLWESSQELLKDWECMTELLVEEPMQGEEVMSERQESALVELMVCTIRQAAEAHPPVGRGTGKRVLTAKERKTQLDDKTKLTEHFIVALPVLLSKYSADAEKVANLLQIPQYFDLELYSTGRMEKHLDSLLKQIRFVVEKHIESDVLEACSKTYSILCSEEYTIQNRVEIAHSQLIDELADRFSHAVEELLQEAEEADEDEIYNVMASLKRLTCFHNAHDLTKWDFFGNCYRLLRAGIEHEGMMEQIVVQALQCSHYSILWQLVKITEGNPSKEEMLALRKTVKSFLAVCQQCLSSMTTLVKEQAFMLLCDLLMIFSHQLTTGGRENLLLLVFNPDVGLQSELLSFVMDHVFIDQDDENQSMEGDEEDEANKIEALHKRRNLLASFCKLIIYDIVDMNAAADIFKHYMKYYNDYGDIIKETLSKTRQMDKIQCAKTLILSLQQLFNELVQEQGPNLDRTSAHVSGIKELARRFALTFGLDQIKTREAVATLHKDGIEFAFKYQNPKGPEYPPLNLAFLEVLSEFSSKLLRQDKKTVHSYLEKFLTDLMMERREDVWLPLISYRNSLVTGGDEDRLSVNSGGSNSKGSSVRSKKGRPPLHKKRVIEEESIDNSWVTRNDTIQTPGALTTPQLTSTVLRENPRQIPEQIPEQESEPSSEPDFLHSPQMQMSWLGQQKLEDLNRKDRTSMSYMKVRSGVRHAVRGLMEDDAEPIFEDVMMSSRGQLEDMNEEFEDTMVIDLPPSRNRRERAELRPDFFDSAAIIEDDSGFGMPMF

[2] = target: T2, XSA2 (Xenopus laevis (endogenous in egg …, UniProt Q9DGN0 1-1194)); experiment: co-IP
T2 sequence: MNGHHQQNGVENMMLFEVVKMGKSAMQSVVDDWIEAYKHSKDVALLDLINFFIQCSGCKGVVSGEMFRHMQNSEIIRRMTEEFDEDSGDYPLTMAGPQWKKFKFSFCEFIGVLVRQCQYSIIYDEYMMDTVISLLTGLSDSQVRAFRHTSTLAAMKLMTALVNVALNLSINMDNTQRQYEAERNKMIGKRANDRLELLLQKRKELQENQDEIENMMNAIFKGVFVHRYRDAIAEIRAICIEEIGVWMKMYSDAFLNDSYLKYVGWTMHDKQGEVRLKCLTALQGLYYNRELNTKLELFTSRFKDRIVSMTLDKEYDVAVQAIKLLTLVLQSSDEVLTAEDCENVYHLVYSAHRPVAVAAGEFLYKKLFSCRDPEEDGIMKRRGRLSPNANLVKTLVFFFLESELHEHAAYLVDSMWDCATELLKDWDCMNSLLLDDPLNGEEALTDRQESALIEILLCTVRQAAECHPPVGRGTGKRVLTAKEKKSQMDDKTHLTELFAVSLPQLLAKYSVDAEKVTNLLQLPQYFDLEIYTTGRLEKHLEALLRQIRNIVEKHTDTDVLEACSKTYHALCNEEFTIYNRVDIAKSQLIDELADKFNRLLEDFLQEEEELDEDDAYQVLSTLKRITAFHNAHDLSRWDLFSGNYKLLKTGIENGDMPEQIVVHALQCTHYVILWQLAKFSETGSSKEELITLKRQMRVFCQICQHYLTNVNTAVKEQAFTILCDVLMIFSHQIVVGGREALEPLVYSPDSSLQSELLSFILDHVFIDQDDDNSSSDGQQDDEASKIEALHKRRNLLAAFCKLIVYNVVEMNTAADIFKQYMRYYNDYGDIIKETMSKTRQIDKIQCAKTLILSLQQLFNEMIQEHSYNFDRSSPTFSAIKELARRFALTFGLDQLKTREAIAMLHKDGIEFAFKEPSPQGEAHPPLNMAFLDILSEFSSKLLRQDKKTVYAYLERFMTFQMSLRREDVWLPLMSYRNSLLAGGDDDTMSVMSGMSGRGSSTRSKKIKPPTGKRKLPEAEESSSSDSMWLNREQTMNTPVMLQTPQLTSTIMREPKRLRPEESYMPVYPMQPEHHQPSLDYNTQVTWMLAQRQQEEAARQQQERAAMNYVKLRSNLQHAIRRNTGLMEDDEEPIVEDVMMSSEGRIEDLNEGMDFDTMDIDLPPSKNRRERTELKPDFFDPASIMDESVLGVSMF

- percent depleted from the extract by anti-XSA1 [1]: ~90%
- percent depleted from the extract by anti-XSA2 [2]: ~10%
B1: XRAD21 (natural protein)
chain: MFYAHFVLSKRGPLAKIWLAAHWDKKLTKAHVFECNLESSVESIICPKVKMALRTSGHLLLGVVRIYHRKAKYLLADCNEAFIKIKMAFRPGVVDLPEENREAAYNAITLPEEFHDFDQPLPDLDDIDVAQQFSLNQSRVEEITMREEVSNINILQDNDFGDFGMDDREMMREGSAFEDDMLTTNASNLKLEPEQSTSQLNEKSNHLEYDDQYKDDNFGEGNEGGILDDKLLSNDAGGIFDDPPAMPEEGVAMPEQPVHDDLDDDDNVSMGAPDSPDSVDPVEPLPTMTDQTTLVPNEEEAFALEPIDITVKETKAKRKRKLIVDSVKELDSKTIRAQLSDYSDIVTTLDLAPPTKKLMMWKETGGVEKLFSLPAQPLWNTRLLKLFTRCLTPLVLDDLRKRRKGGEADNLDEFLKEFENPEVPREELRPQDVIDQPILEEASHLQESLMEGSRTHLDDTIMPPPPPKQGVKRDSLQMEPEPMPMMQEAEPQIEMPPPPLPPPLELPPEEPQSISDLIPELNLLPEKEKEKDEEEEEEEEDTTGTEQDQEERRWNKRTQQMLHGLQRVLAKTGAESISLLDLCRNTNRKQAAAKFYSFLVLKKQQAIELTQREPYSDIVATPGPRFHTV
